Molecular target: human telomerase reverse transcriptase hTERT (WT) (human) (UniProt O14746)
Experiment: sucrose gradient sedimentation

stoichiometry N: 2
Substance: human telomerase reverse transcriptase hTERT (WT) (from UniProt O14746 1-1132) (enzyme)

From article PMC3785136
